From paper PMC8263772 (2021) come the findings set out here.

The experiment addresses SARS-CoV-2 spike (S) protein receptor binding domain (RBD), wild type (SARS-CoV-2, UniProt P0DTC2). The experiment is described as follows: SPR.

B1: dog angiotensin-converting enzyme 2 (dACE2) ectodomain, 6xHis (receptor)
chain: MQSTEDLVKTFLEKFNYEAEELSYQSSLASWNYNINITDENVQKMNNAGAKWSAFYEEQSKLAKTYPLEEIQDSTVKRQLRALQHSGSSVLSADKNQRLNTILNSMSTIYSTGKACNPSNPQECLLLEPGLDDIMENSKDYNERLWAWEGWRSEVGKQLRPLYEEYVALKNEMARANNYEDYGDYWRGDYEEEWENGYNYSRNQLIDDVEHTFTQIMPLYQHLHAYVRTKLMDTYPSYISPTGCLPAHLLGDMWGRFWTNLYPLTVPFGQKPNIDVTNAMVNQSWDARKIFKEAEKFFVSVGLPNMTQEFWENSMLTEPSDSRKVVCHPTAWDLGKGDFRIKMCTKVTMDDFLTAHHEMGHIQYDMAYAAQPFLLRNGANEGFHEAVGEIMSLSAATPNHLKNIGLLPPSFFEDSETEINFLLKQALTIVGTLPFTYMLEKWRWMVFKGEIPKDQWMKTWWEMKRNIVGVVEPVPHDETYCDPASLFHVANDYSFIRYYTRTIYQFQFQEALCQIAKHEGPLHKCDISNSSEAGQKLLEMLKLGKSKPWTYALEIVVGAKNMDVRPLLNYFEPLFTWLKEQNRNSFVGWNTDWSPYADQSIKVRISLKSALGEKAYEWNNNEMYLFRSSIAYAMRQYFSEVKNQTIPFVEDNVWVSDLKPRISFNFFVTSPGNVSDIIPRTEVEEAIRMYRSRINDVFRLDDNSLEFLGIQPTLGPPYEPPVT
Turning to B1, the koff is 0.0139 s⁻¹.
